Assay results reported in patent publication US20250129136A1.

How the values were obtained:
[1] = target: hPBMC; assay: flow cytometry, percent of stained hPBMC against the concentration of Alexa647-labeled hDsg3-hFc
[2] = target: Fcγ receptor of mouse macrophages (RAW264.7 cells) (mouse); assay: flow cytometry dot plot of RAW264.7 macrophage cells, 10 nM mDsg3-IgG2a-Alexa647; the same quadrant at 0 nM prints 1.28
[3] = target: AK23 antibody (anti-mouse Dsg3, from AK23 hybridoma); assay: cell-based or functional assay
[4] = target: F779 patient-derived anti-Dsg3 antibody on Nalm-6 cells; assay: cell-based or functional assay
[5] = target: PVB28 patient-derived anti-Dsg3 antibody on Nalm-6 cells; assay: cell-based or functional assay
[6] = target: F779 patient-derived anti-Dsg3 antibody on Nalm-6 cells; assay: flow cytometry, F779 cells incubated with varying concentrations of mDsg3-mFc (IgG2a), percent of stained F779 cells [top]
[7] = target: F779 patient-derived anti-Dsg3 antibody on Nalm-6 cells; assay: flow cytometry on F779 cells, titration of Alexa647-labeled protein
[8] = target: Fcγ receptor of mouse macrophages (RAW264.7 cells) (mouse); assay: flow cytometry on Raw macrophage cells, titration of labeled protein

EC50 [1] [nM]	number in the Alexa647-positive upper right quadrant at 10 nM (percent of cells) [2] [%]	EC50 [6] [nM]	EC50 [7] [nM]	EC50 [8] [nM]	Molecule	killing of AK23 target cells co-cultured with RAW264.7 macrophages, 10 nM construct, 24 hours [3] [%]	killing of F779 target cells co-cultured with RAW264.7 macrophages, 10 nM construct, 24 hours [4] [%]	killing of F779 target cells co-cultured with RAW264.7 macrophages, 10 nM construct, 48 hours [4] [%]	killing of F779 target cells with RAW264.7 macrophages (Effector:Target 10:1), 1 nM construct, 24 hours [4] [%]	killing of F779 target cells with RAW264.7 macrophages (Effector:Target 10:1), 1 nM construct, 48 hours [4] [%]	killing of targeted cells with RAW264.7 macrophages at 10 and 100 nM construct [4] [%]	killing of targeted cells with RAW264.7 macrophages at 10 and 100 nM construct [5] [%]
1.7					hDsg3(EC13)-hFc (Fc fusion)							
	98.6	2.6	2.3	2.3	mDsg3(EC13)-mFc (Fc fusion, Alexa Fluor 647 installed site-specifically at the C-terminus by sortase (Gly3-Alexa647 on the LPETG motif) for the flow cytometry stainings) EWVKFAKPCREREDNSRRNPIAKITSDFQKNQKITYRISGVGIDQPPFGIFVVDPNNGDINITAIVDREETPSFLITCRALNALGQDVERPLILTVKILDVNDNPPIFSQTIFKGEIEENSASNSLVMILNATDADEPNHMNSKIAFKIVSQEPAGMSMFLISRNTGEVRTLTSSLDREQISSYHLVVSGADNDGTGLSTQCECSIKIKDVNDNFPVLRESQYSARIEENTLNAELLRFQVTDWDEEYTDNWLAVYFFTSGNEGNWFEIETDPRTNEGILKVVKALDYEQVQSMQFSIAVRNKAEFHQSVISQYRVQSTPVTIQVIDVREGISGGGGSGGSEPRGPTIKPCPPCKCPAPNLLGGPSVFIFPPKIKDVLMISLSPIVTCVVVDVSEDDPDVQISWFVNNVEVHTAQTQTHREDYNSTLRVVSALPIQHQDWMSGKEFKCKVNNKDLPAPIERTISKPKGSVRAPQVYVLPPPEEEMTKKQVTLTCMVTDFMPEDIYVEWTNNGKTELNYKNTEPVLDSDGSYFMYSKLRVEKKNWVERNSYSCSVVHEGLHNHHTTKSFSRTPGKGGGGSGGGGSDYKDDDDKLPETGGHHHHHH	60	65	94	60	80	90	90
